Measured values: patent US20230272073A1

Target: IGHV3-21/IGLV3-21^G110 BCR on murine TKO cells (human) (UniProt P01871)
Test: flow cytometry dot plot, cell mix B (1:1 IGHV3-21/IGLV3-21^G110 BCR TKO cells and BCR-negative TKO cells), 5 µg/ml mAb01-01-APC and 2 µg/ml anti-human IgM-PE

Sequence of IGHV3-21/IGLV3-21^G110 BCR on murine TKO cells (human) (P01871 other isoform, or with tags, fused parts or gaps, chain 1 of 2): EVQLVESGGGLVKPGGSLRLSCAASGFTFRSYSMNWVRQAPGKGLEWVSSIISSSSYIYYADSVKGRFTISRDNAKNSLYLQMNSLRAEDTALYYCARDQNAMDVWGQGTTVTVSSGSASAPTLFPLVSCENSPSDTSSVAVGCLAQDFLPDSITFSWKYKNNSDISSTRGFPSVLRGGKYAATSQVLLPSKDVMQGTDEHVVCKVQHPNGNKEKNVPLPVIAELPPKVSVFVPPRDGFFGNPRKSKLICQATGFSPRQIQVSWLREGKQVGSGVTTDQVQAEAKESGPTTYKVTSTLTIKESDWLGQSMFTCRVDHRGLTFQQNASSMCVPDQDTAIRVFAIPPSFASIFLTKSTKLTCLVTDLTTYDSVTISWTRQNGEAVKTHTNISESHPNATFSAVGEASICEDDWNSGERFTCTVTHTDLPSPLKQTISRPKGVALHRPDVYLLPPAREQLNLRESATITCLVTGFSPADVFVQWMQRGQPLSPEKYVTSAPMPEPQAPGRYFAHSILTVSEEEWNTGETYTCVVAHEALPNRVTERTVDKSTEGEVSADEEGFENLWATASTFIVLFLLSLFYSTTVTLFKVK
Sequence of IGHV3-21/IGLV3-21^G110 BCR on murine TKO cells (human) (light, as listed by the source, chain 2 of 2): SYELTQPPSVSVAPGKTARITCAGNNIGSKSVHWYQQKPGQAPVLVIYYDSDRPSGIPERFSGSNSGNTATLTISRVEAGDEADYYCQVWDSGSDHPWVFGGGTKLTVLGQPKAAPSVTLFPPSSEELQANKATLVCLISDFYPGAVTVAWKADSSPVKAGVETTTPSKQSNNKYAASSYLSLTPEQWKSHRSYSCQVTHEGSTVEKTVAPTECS

share of gated cells (P1) in quadrant Q1 (anti-IgM-PE positive, mAb01-01-APC negative): 42.2%
share of gated cells (P1) in quadrant Q2 (anti-IgM-PE positive, mAb01-01-APC positive): 1.11%
B1: mAb01-01 (antibody, mouse IgG1, kappa, V domains shown)
VH: QVQLQQSGPGLVQPSQSLSITCTVSGFSLTSYGIHWVRQSPGKGLEWLGVIWRGGGTDSNAAFMSRLSITKDNSKSQVFFKMNSLQADDTAIYYCARSRYDEEESMNYWGQGTSVTVSS
VL: QIVLTQSPASLSASVGETVTITCRASGNIHSYLAWYQQKQGKSPQLLVYNAKTLADGVPSRFSGSGSGTQYSLKINSLQPEDFGSYYCQHFWNTPPTFGAGTKLELKR
